The target of one assay is ERAP1_R (Homo sapiens, UniProt Q9NZ08). Put plainly: SPR binding analysis of peptide analytes to immobilized ERAP1_R. The conditions noted are these: pH 6.2, read-out: ka. (Surface plasmon resonance follows binding to a sensor surface in real time, without labels.)
The target in assay [1] is ERAP1 regulatory domain with a C-terminal His6-tag (human, UniProt Q9NZ08 529-941). Kind of assay: SPR.
For assay [2], the target named is ERAP1 regulatory domain, the domain part of the SPF and LPF fused constructs (human, UniProt Q9NZ08 529-941). Put plainly: crystal structure.

No end group written: not given here.

On to “LVAFKARKF [Free Peptide (LVAFKARKF), LVAFKARKF]”, for which the kon at ERAP1_R was 734 M⁻¹ s⁻¹.

B1: SPF single-chain fused construct (ERAP1_R with FKARKF fused to its C-terminal end), His6-tag removed (domain or fragment, human)
chain: GFPLITITVRGRNVHMKQEHYMKGSDGAPDTGYLWHVPLTFITSKSDMVHRFLLKTKTDVLILPEEVEWIKFNVGMNGYYIVHYEDDGWDSLTGLLKGTHTAVSSNDRASLINNAFQLVSIGKLSIEKALDLSLYLKHETEIMPVFQGLNELIPMYKLMEKRDMNEVETQFKAFLIRLLRDLIDKQTWTDEGSVSERMLRSQLLLLACVHNYQPCVQRAEGYFRKWKESNGNLSLPVDVTLAVFAVGAQSTEGWDFLYSKYQFSLSSTEKSQIEFALCRTQNKEKLQWLLDESFKGDKIKTQEFPQILTLIGRNPVGYPLAWQFLRKNWNKLVQKFELGSSSIAHMVMGTTNQFSTRTRLEEVKGFFSSLKENGSQLRCVQQTIETIEENIGWMDKNFDKIRVWLQSEKLERMFKARKF
As to B1, in assay [1], binding was characterised by a dissociation constant (Kd) of 32 µM; the koff (as a rule, a measure of how fast the partners let go of each other) stood at 0.112 s⁻¹; the kon is 3500 M⁻¹ s⁻¹.
AAAAFKARKF [LPF peptide (long peptide with Phe anchor), the peptide part of the LPF fused construct]: in assay [2], the binding result was “binds”.
With LVAFKARKF [free peptide LVAFKARKF (optimized ERAP1 substrate)], in assay [1], the dissociation constant Kd (usually the concentration at which binding is half-saturated) stood at 19.8 µM and the koff was 0.0145 s⁻¹.
Turning to FKARKF [SPF peptide (short peptide with Phe anchor), the peptide part of the SPF fused construct], the binding result in assay [2] is recorded as “binds”.

B2: LPF single-chain fused construct (ERAP1_R with AAAAFKARKF fused to its C-terminal end), His6-tag removed (domain or fragment, human)
chain: GFPLITITVRGRNVHMKQEHYMKGSDGAPDTGYLWHVPLTFITSKSDMVHRFLLKTKTDVLILPEEVEWIKFNVGMNGYYIVHYEDDGWDSLTGLLKGTHTAVSSNDRASLINNAFQLVSIGKLSIEKALDLSLYLKHETEIMPVFQGLNELIPMYKLMEKRDMNEVETQFKAFLIRLLRDLIDKQTWTDEGSVSERMLRSQLLLLACVHNYQPCVQRAEGYFRKWKESNGNLSLPVDVTLAVFAVGAQSTEGWDFLYSKYQFSLSSTEKSQIEFALCRTQNKEKLQWLLDESFKGDKIKTQEFPQILTLIGRNPVGYPLAWQFLRKNWNKLVQKFELGSSSIAHMVMGTTNQFSTRTRLEEVKGFFSSLKENGSQLRCVQQTIETIEENIGWMDKNFDKIRVWLQSEKLERMAAAAFKARKF
In assay [1], B2 had a Kd of 21.3 µM, a koff of 0.091 s⁻¹ and a kon of 4270 M⁻¹ s⁻¹.

(Values after publication PMC8295233 (Immunobiology, 2021).)
